# According to paper PMC3678169 (The Journal of Cell Biology, 2013):
# Where no end group is shown, it is not given here. The star is where a group is joined. Dansyl = CN(C)c1cccc2c(S(=O)(=O)*)cccc12
# B1: GST-p67 fusion (natural protein, human, UniProt P19878 1-526, looked up)
# chain: MSLVEAISLWNEGVLAADKKDWKGALDAFSAVQDPHSRICFNIGCMYTILKNMTEAEKAFTRSINRDKHLAVAYFQRGMLYYQTEKYDLAIKDLKEALIQLRGNQLIDYKILGLQFKLFACEVLYNIAFMYAKKEEWKKAEEQLALATSMKSEPRHSKIDKAMECVWKQKLYEPVVIPVGKLFRPNERQVAQLAKKDYLGKATVVASVVDQDSFSGFAPLQPQAAEPPPRPKTPEIFRALEGEAHRVLFGFVPETKEELQVMPGNIVFVLKKGNDNWATVMFNGQKGLVPCNYLEPVELRIHPQQQPQEESSPQSDIPAPPSSKAPGRPQLSPGQKQKEEPKEVKLSVPMPYTLKVHYKYTVVMKTQPGLPYSQVRDMVSKKLELRLEHTKLSYRPRDSNELVPLSEDSMKDAWGQVKNYCLTLWCENTVGDQGFPDEPKESEKADANNQTTEPQLKKGSQVEALFSYEATQPEDLEFQEGDIILVLSKVNEEWLEGECKGKVGIFPKVFVEDCATTDLESTRREV
# B2: human VE-cadherin peptide (654–669; MLAELYGSDPREELLY) (peptide)
# peptide: Dansyl-MLAELYGSDPREELLY
# B3: His-tagged Tiam1 PHn-CC-Ex domain (429–702) (domain or fragment, human, UniProt Q13009 429-702, looked up)
# chain: AAQGTVRKAGALAVKNFLVHKKNKKVESATRRKWKHYWVSLKGCTLFFYESDGRSGIDHNSIPKHAVWVENSIVQAVPEHPKKDFVFCLSNSLGDAFLFQTTSQTELENWITAIHSACATAVARHHHKEDTLRLLKSEIKKLEQKIDMDEKMKKMGEMQLSSVTDSKKKKTILDQIFVWEQNLEQFQMDLFRFRCYLASLQGGELPNPKRLLAFASRPTKVAMGRLGIFSVSSFHALVAARTGETGVRRRTQAMSRSASKRRSRFSSLWGLDTT
# Columns and labels:
# [1] = biological target: His-tagged Tiam1 PHn-PHc (423–1406) (human, UniProt Q13009 423-1406); assay: pull-down
# [2] = biological target: 15N-labeled Tiam1 PDZ domain (human, UniProt Q13009 841-930); assay: NMR titration
# [3] = biological target: B1; assay: pull-down
# 15N-labeled Tiam1 PDZ domain, sequence (Q13009 841-930): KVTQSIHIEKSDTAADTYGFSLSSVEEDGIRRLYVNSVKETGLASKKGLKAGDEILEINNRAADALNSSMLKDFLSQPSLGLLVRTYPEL
# His-tagged Tiam1 PHn-PHc (423–1406), sequence (Q13009 423-1406): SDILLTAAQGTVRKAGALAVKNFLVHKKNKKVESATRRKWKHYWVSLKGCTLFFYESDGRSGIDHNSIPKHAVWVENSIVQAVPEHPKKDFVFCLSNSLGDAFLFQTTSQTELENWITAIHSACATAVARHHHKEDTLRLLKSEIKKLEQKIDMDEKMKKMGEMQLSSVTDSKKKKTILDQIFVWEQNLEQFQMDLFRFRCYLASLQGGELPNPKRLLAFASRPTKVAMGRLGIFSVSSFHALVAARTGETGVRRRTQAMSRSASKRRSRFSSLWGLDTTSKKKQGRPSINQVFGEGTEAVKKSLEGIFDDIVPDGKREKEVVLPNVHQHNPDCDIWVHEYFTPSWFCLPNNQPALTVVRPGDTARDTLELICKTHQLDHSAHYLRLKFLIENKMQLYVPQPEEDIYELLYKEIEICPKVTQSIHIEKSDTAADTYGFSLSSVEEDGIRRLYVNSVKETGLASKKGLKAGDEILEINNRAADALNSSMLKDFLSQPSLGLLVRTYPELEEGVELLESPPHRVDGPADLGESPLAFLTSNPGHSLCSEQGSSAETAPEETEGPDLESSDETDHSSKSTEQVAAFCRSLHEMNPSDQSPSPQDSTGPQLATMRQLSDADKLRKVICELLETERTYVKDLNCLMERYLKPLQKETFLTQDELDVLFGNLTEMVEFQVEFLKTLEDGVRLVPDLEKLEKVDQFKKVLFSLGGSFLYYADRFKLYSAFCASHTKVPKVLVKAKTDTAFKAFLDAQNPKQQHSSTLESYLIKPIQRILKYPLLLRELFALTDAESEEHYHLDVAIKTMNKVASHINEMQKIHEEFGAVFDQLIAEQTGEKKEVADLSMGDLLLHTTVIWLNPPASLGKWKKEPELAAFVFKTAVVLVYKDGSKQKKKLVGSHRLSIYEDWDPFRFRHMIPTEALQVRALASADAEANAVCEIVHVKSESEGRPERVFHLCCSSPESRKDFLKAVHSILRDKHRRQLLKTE
binder,measurement,setting,value
B1,binding result,[1],binds
B2,Kd,[2],980 ± 150 µM
B3,binding result,[3],binds
